Results: paper doi:10.1101/2021.07.02.450967 (bioRxiv, 2021)
“And” between values parts separate entries of the source, which are not always exact repeats. Equal values may be shown once.

Target: T1, SOX7, made in the cell-free protein production system (UniProt Q9BT81 1-388)
T1 sequence: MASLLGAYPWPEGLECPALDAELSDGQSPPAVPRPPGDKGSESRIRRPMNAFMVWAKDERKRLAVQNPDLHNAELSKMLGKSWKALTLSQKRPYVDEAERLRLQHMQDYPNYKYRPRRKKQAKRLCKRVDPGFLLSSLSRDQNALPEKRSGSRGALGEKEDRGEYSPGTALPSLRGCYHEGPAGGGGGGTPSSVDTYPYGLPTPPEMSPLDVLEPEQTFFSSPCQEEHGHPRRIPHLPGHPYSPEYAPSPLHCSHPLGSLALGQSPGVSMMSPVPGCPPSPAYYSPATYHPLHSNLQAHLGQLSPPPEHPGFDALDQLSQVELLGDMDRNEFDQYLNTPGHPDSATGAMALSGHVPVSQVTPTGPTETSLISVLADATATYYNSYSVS
Test: single molecule two-colour coincidence spectroscopy

B1: HEY1, made in the cell-free protein production system (natural protein)
chain: MKRAHPEYSSSDSELDETIEVEKESADENGNLSSALGSMSPTTSSQILARKRRRGIIEKRRRDRINNSLSELRRLVPSAFEKQGSAKLEKAEILQMTVDHLKMLHTAGGKGYFDAHALAMDYRSLGFRECLAEVARYLSIIEGLDASDPLRVRLVSHLNNYASQREAASGAHAGLGHIPWGTVFGHHPHIAHPLLLPQNGHGNAGTTASPTEPHHQGRLGSAHPEAPALRAPPSGSLGPVLPVVTSASKLSPPLLSSVASLSAFPFSFGSFHLLSPNALSPSAPTQAANLGKPYRPWGTEIGAF
stoichiometry N: 1 HEY1 per SOX7 (1:1) and 2 HEY1 per SOX7 (1:2, order as printed)
